Where a chain is given by its changes, count along the chain named. Numbers in names are those of the source. Where two headings read alike, the source gives them in different places. Values belong to the molecule of their own block, whether it stands above or below them.
Columns and labels:
CDK4 [1] = biological target: T1, CDK4 (Homo sapiens, UniProt P11802); test: p16 activity assay with CDK4 (NanoBiT, cell line #11); format: cell-based; conditions: for Observed function: p16 (CDKN2A) mutants, with CDK4
T1 construct: expressed in transfected cells; host or cells: HEK293 CDK4/CDK6 double-knockout cells stably expressing E2F1-Dp-1-LB (clone #11); early experiments in plain HEK293
T1 sequence (P11802 2-303): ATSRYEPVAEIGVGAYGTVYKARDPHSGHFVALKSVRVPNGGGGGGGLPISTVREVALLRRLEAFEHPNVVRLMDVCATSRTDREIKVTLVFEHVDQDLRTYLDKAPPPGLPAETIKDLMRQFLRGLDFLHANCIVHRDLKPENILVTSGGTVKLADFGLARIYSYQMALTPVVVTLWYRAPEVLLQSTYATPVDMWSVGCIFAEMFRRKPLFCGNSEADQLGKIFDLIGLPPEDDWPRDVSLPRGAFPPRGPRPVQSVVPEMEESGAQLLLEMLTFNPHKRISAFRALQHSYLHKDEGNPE
From the text: (§1) We developed an assay that could measure the interaction between Rb, E2F1 and Dp-1. When the Rb and E2F1 proteins are in close proximity or in complex, a light signal is observed. For the purpose of the assay, split-luciferase complementation was used to measure the interaction between Rb and E2F1, which served as a surrogate measure of CDK4/6 activity and the ability of CDK4/6 to respond to the natural inhibitor p16. The NanoBiT assay system by Promega (Madison, Wis.; Dixon et al., 2015, ACS ChemBiol) was used in the split luciferase complementation design. FIG. 24 depicts a design of a signal system to measure p16 activity. Under basal conditions inside the cell, Rb is active and interacts with the E2F1/Dp-1 heterodimer. However, in the presence of the CDK4 or CDK6, Rb gets phosphorylated and released from the interacting complex. In the presence of the natural inhibitor p16, CDK4/6 is no longer available to phosphorylate Rb and thus promoting the Rb/E2F1-Dp-1 complex formation.
(§2) For the purpose of the current assay, the stable cell line #11 that we generated for the CDK activity assay was used and described above. HEK293 CDK DKO cells containing E2F1-Dp-1-LB was transiently transfected with CDK4/CDK6, CyclinD1, and SB-Rb. The transfected cells were then exposed to the natural inhibitor p16 (FIG. 25). When CDK4 or CDK6 is present, a decrease in activity was observed as Rb gets phosphorylated resulting in no Rb/E2F1-Dp-1 interaction. […] The data presented was a sample experiment where each condition was performed in triplicate and represented mean+SD.
(§3) The conditions of the assay were optimized by using different p16 amounts and cell numbers (FIGS. 25A and 25B). Based on the data generated, it was decided that using 0.2×10^6 cells/ml and 10 ng of p16 would be preferable.
(§4) To examine the ability of the assay to detect variants in CDKN2A that affect function, known loss of function mutants and unknown COSMIC mutants were created. Wild-type or mutated CDKN2A were prepared in a manner similar to that previously indicated. […] Therefore the p16 activity assay is capable of determining the relative activity level of p16 mutants. The data provided is in Luminescence (RLU) of a single experiment with each condition performed in triplicate and represent average+SD. Summary Table 13 reports p16 mutants tested.
(§5) In addition to check functional state of p16 mutants, p16 activity assay can be used to look at p16 inhibition response of different CDK4 and CDK6 mutants. Different response of WT CDK4 and CDK6 and hyperactive mutants of CDK4 (R24A) and CDK6 (R31C) is shown on FIG. 28. […] The p16 activity assay is so sensitive and specific that hyperactive CDK4 and CDK6 mutants can show different response to mutant p16.

CDK6 [2] = biological target: T2, CDK6 (Homo sapiens, UniProt Q00534); test: p16 activity assay with CDK6 (NanoBiT, cell line #11); format: cell-based; conditions: CDK6, CyclinD1, SB-Rb transfected cell line #11
T2 construct: expressed in transfected cells; host or cells: HEK293 CDK4/CDK6 double-knockout cells stably expressing E2F1-Dp-1-LB (clone #11); early experiments in plain HEK293
T2 sequence (Q00534 whole entry): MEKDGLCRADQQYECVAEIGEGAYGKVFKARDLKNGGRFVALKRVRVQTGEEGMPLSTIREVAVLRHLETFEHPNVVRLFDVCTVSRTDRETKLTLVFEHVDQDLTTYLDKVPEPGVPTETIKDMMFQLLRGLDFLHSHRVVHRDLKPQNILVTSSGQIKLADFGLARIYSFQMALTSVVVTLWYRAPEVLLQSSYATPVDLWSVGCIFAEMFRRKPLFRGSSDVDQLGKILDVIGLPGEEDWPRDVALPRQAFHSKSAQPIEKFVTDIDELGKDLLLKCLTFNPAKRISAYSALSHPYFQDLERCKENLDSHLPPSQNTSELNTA
From the text: as §1
(§6) For the purpose of the current assay, the stable cell line #11 that we generated for the CDK activity assay was used and described above. HEK293 CDK DKO cells containing E2F1-Dp-1-LB was transiently transfected with CDK4/CDK6, CyclinD1, and SB-Rb. The transfected cells were then exposed to the natural inhibitor p16 (FIG. 25). […]

Rb/E2F1-Dp-1 complex [3] = test: CDK6 mutant activity / drug resistance in NanoBiT assay, stable cell line #11; format: cell-based, human; conditions: CDK6 mutants
Description: (§7) A linear expression cassette of mutated CDK4 or CDK6 was generated by PCR mediated overlapping extension method. A pair of forward and reverse primers containing the targeted mutations was designed. The mutated codon was located in the middle of a primer flanked by 18-21 nucleotides on each side. Two PCRs (named as PCR #1 and PCR #2 in FIG. 1) were performed using UF-CMV forward and mutated reverse primers, or mutated forward and BGH-UR primers. The PCR products were cleaned up by ExoSAP-IT® (Affymetrix) to remove unconsumed dNTPs and primers. The treated PCR products were mixed together followed by dilution with water. A second round of PCR was performed using the diluted PCR mixture, and the UF and UR primers (FIG. 1). The amplified products were gel-purified. The DNA concentration was quantitated by the optical density at 260 nm using Nanodrop. The targeted mutations were incorporated in the CDK4 or CDK6 genes during the PCR mediated overlapping extension method. The introduced mutations were confirmed by the DNA sequencing.
(§8) To examine the ability of the assay to detect variants in CDK4 or CDK6 that affect function, kinase dead mutants and COSMIC (Catalogue Of Somatic Mutations in cancer) unknown mutants were created. For comparison, hyperactive CDK4 or CDK6 mutants known to be hyperactive due to less binding to natural inhibitor p16 were also created. The mutations in CDK4 or CDK6 were created by site-directed mutagenesis. WT or mutated CDK4 or CDK6 along with the CyclinD1 and SB-Rb were co-transfected, under similar conditions as previously indicated (see FIG. 9).
(§9) Computer modeling was used to reveal the drug-binding pocket and predict drug-resistant mutants. The mutations in CDK4 and CDK6 were created by site-directed mutagenesis. WT or mutated CDK4 or CDK6 along with the CyclinD1 and SB-Rb was co-transfected into #11 cell line, under the same conditions as previously indicated. […] Dose response curves are presented on FIG. 13A and FIG. 13B. Activity of other mutants was very similar to the WT or KD.
(§10) CDK4 and CDK6 mutants with known function and unknown function taken from the COSMIC database were analyzed in the present assay and are summarized in Table 7A and Table 7B. The mutants were classified according to their activity. Table 7A and Table 7B also show the number of counts per mutant in the COSMIC database, type of cancer, and luciferase activity compared to the WT (being 100%).

CDK6 [4] = biological target: T3, CDK6 (Homo sapiens, UniProt Q00534, R31C); test: p16 activity assay with CDK6 (NanoBiT, cell line #11); format: cell-based; conditions: compared to WT CDK6
T3 construct: expressed in transfected cells; host or cells: HEK293 CDK4/CDK6 double-knockout cells stably expressing E2F1-Dp-1-LB (clone #11); early experiments in plain HEK293
T3 sequence (Q00534 whole entry R31C): as the sequence (Q00534 whole entry) above, with R31C counted along it
From the text: as §1, §6

Rb/E2F1-Dp-1 complex [5] = conditions: CDK6 mutants, literature ref.; Hyper = hyperactive, KD = kinase dead; cited from earlier work
Rb/E2F1-Dp-1 complex [6] = test: CDK4 mutant activity / drug resistance in NanoBiT assay, stable cell line #11; format: cell-based, human; conditions: CDK4 mutants, compared to the WT (being 100%)
Description: as §7, §8
To examine the specificity of the assay, particular CDK4 kinase dead mutants were created. Modifications to D158 were made by changing aspartate to nonpolar alanine (D158A) or positively charged arginine (D158R). […] The mutations in CDK4 were created by site-directed mutagenesis. WT or mutated CDK4 along with the CyclinD1 and SB-Rb was co-transfected into the #11 cell line, under the same conditions as previously indicated. […] Kinase dead mutants have the high signal due to inability to phosphorylate Rb.
as §9, §10

CDK4 [7] = biological target: T4, CDK4 (Homo sapiens, UniProt P11802, R24A); test: p16 activity assay with CDK4 (NanoBiT, cell line #11); format: cell-based; conditions: compared to WT CDK4
T4 construct: expressed in transfected cells; host or cells: HEK293 CDK4/CDK6 double-knockout cells stably expressing E2F1-Dp-1-LB (clone #11); early experiments in plain HEK293
From the text: as §1, §2, §3, §4, §5

Rb/E2F1-Dp-1 complex [8] = conditions: CDK4 mutants, literature ref.; Hyper = hyperactive, KD = kinase dead; cited from earlier work
CDK4 [9] = conditions: p16 (CDKN2A) mutants; cited from earlier work

luminescence with treatment of p16 (CDK4 [1]; CDK4, CyclinD1, SB-Rb transfected cell line #11): increase in luminescence
luminescence with treatment of p16 (CDK6 [2]): increase in luminescence
Molecule: p16: cyclin-dependent kinase inhibitor 2A, natural inhibitor of CDK4 and CDK6, encoded by CDKN2A

p16 inhibition response of hyperactive CDK6 mutant (luminescence) (CDK6 [4]): decreased level of luminescence
Molecule: CDK6 R31C: CDK6 mutant, literature hyperactive
Luc activity (/wt) (Rb/E2F1-Dp-1 complex [3]; compared to the WT (being 100%)): 66%
luciferase signal compared to WT CDK6 (in words) (Rb/E2F1-Dp-1 complex [3]; no drug): a little bit lower basal signal than WT
Reported activity (Rb/E2F1-Dp-1 complex [5]): Hyper

p16 inhibition response of hyperactive CDK4 mutant (luminescence) (CDK4 [7]): decreased level of luminescence
B1: CDK4 R24A: CDK4 mutant, literature hyperactive (protein)
chain: ATSRYEPVAEIGVGAYGTVYKAADPHSGHFVALKSVRVPNGGGGGGGLPISTVREVALLRRLEAFEHPNVVRLMDVCATSRTDREIKVTLVFEHVDQDLRTYLDKAPPPGLPAETIKDLMRQFLRGLDFLHANCIVHRDLKPENILVTSGGTVKLADFGLARIYSYQMALTPVVVTLWYRAPEVLLQSTYATPVDMWSVGCIFAEMFRRKPLFCGNSEADQLGKIFDLIGLPPEDDWPRDVSLPRGAFPPRGPRPVQSVVPEMEESGAQLLLEMLTFNPHKRISAFRALQHSYLHKDEGNPE
Luc. activity (/wt) (Rb/E2F1-Dp-1 complex [6]): 79%
Reported activity (Rb/E2F1-Dp-1 complex [8]): Hyper

B2: CDK4 K22A: CDK4 mutant, literature hyperactive (protein, UniProt P11802 2-303, looked up, variant K22A)
Cyclin-dependent kinase 4: B1 chain with K21A, A23R
Luc. activity (/wt) (Rb/E2F1-Dp-1 complex [6]): 67.5%
Reported activity (Rb/E2F1-Dp-1 complex [8]): Hyper

Observed function (CDK4 [1]): Normal
B3: p16 A148T: p16 (CDKN2A) mutant (protein)
chain: MEPAAGSSMEPSADWLATAAARGRVEEVRALLEAGALPNAPNSYGRRPIQVMMMGSARVAELLLLHGAEPNCADPATLTRPVHDAAREGFLDTLVVLHRAGARLDVRDAWGRLPVDLAEELGHRDVARYLRAAAGGTRGSNHARIDATEGPSDIPD
Literature reported function (CDK4 [9]): Normal

Observed function (CDK4 [1]): Normal
B4: p16 R144C: p16 (CDKN2A) mutant (protein)
chain: B3 chain with R144C, T148A
Literature reported function (CDK4 [9]): Normal
